Tests used:
[1] = target: collagen I (purified, Sigma; acid-soluble human collagen type I in BIAcore) (human) (UniProt P02452); assay: SPR (BIAcore), equilibrium binding to immobilised collagen I
[2] = target: collagen I (purified, Sigma; acid-soluble human collagen type I in BIAcore) (human) (UniProt P02452); assay: SPR (BIAcore), biphasic dissociation from collagen I, component Koff2
[3] = target: collagen I (purified, Sigma; acid-soluble human collagen type I in BIAcore) (human) (UniProt P02452); assay: SPR (BIAcore), biphasic dissociation from collagen I, component Koff1

B1: hLAIR-1-IgG (extracellular domain of human LAIR-1 fused to the Fc region of human IgG1) (Fc fusion, UniProt Q6GTX8 22-165, looked up, not shown: a dimerising Fc or GST)
chain: QEEDLPRPSISAEPGTVIPLGSHVTFVCRGPVGVQTFRLERDSRSTYNDTEDVSQASPSESEARFRIDSVREGNAGLYRCIYYKPPKWSEQSDYLELLVKESSGGPDSPDTEPGSSAGPTQRPSDNSHNEHAPASQGLKAEHLY
Kd [1]: 14.2 nM | koff [2]: 0.00187 s⁻¹ | koff [3]: 0.000142 s⁻¹

Source: patent publication US20090304686A1, “INTERFERING IN ACTIVATION OF AN IMMUNE CELL BY INFLUENCING INTERACTION OF LAIR AND COLLAGEN” (UNIVERSOTAIR MEDISCH CENTRUM UTRECHT, priority 2006, published 2009)
